Square brackets hold non-standard residues; d marks the D form. Ends that are not written are not given here. Peptide text beside a SMILES is read from it. hSer = N[C@@H](CCO)C(=O)O
Legend:
[1] = Measurement of elution time in reversed phase HPLC (correlates to hydrophobicity); assay type: physicochemical; conditions: reversed phase C-18 column, 40° C., 0.012N hydrochloric acid with 15, 25 and 50% acetonitrile, 50 minutes, 0.8 ml/min
Description: (Measurement of elution time in reversed phase HPLC)
It is well known that the elution time in HPLC with the use of a reversed phase column correlates to the hydrophobicity of a compound (cf. J. Med. Chem., vol. 18, pp. 549-552 (1975) and J. Pharm. Sci., vol. 66, pp. 747-749 (1977)). Thus, the elution time of each of the VIP analog derivatives obtained in the above Reference Production Example and production Examples was measured under the HPLC conditions as specified below. As a control, natural VIP having a human type amino acid sequence (purchased from Peptide Institute, INC.) was employed.
Column: μ-BONDASPHERE C-18 column (manufactured by Millipore Corporation, 3.9 mm×150 mm)
Eluent: eluted with 0.012N hydrochloric containing 15, 25 and 50% of acetonitrile in this order, for 50 minutes
Detection wavelength: 210 nm

[2] = system: histamine-induced bronchoconstriction; assay: Duration of bronchoconstriction suppressing activity (Konzett-Rossler method); assay type: in vivo; conditions: male guinea pig, drug dropped directly into the respiratory tract, 5 μg/kg histamine intravenously
Description: (Duration of bronchoconstriction suppressing activity)
The inhibitory activity of the VIP analog derivatives, obtained in the Production Examples above, on histamine-induced bronchoconstriction was evaluated on test samples in accordance with a Konzett-Rossler method. Natural type VIP was used as a control.
First, a male guinea pig was fixed under urethane-anesthesia. After cutting the neck of the animal, a canula drug line was inserted into its jugular vein while a canula connected to a Konzett-Rossler device was inserted into its respiratory tract. After dropping a test drug directly into the respiratory tract, the head of the animal was held up for 1 minute to allow the drug to reach the lungs. Subsequently, 5 μg/kg of histamine was intravenously administered to the animal and the bronchoconstriction was measured over time. One minute before the administration of histamine, succinylcholine chloride was intravenously administered to the animal to thereby suppress spontaneous respiration during the experiment. Evaluation was made in the following manner. Before the administration of the test drug, the intensity of bronchoconstriction induced by histamine was measured. Then, after the administration of the test drug, the time required for reducing by 50% the suppression of bronchoconstriction induced by the same dose of histamine as measured above was defined as t50. The t50 of each test drug was determined.

in vitro = conditions: male, Hartley, guinea pig, pH 7.8
Description: First, male Hartley guinea pigs (weight: 350-380 g) were anesthetized by intraperitoneally administering urethane. Next, the respiratory tract of each animal was exposed by cutting its neck and 4 ml of physiological saline was slowly injected into the respiratory tract. Then, the injected solution was recovered from the respiratory tract, which is referred to as the broncho-alveolar lavage wash.
1, 2, 3 and 4 hours after the initiation of the incubation, the reaction mixture was collected and the residual concentration of the (SEQ ID NO: 3)-n-hexylamide or the natural type VIP was measure under the following HPLC conditions to thereby determine the half-life thereof.
Column: μ-BONDASPHERE C-18 column (manufactured Waters Co., 3.9 mm×150 mm)
Eluent: eluted with 0.012N hydrochloric containing acetonitrile at a linear gradient concentration from 15 to 25%, for 20 min

enkephalinase = enkephalinase (Homo sapiens, UniProt P08473); conditions: incubated with enkephalinase, within 15 minutes; cited from earlier work
[3] = broncho-alveolar lavage wash from guinea pig at 37° C.; cited from earlier work

Sequence of enkephalinase (P08473 whole entry, species assumed): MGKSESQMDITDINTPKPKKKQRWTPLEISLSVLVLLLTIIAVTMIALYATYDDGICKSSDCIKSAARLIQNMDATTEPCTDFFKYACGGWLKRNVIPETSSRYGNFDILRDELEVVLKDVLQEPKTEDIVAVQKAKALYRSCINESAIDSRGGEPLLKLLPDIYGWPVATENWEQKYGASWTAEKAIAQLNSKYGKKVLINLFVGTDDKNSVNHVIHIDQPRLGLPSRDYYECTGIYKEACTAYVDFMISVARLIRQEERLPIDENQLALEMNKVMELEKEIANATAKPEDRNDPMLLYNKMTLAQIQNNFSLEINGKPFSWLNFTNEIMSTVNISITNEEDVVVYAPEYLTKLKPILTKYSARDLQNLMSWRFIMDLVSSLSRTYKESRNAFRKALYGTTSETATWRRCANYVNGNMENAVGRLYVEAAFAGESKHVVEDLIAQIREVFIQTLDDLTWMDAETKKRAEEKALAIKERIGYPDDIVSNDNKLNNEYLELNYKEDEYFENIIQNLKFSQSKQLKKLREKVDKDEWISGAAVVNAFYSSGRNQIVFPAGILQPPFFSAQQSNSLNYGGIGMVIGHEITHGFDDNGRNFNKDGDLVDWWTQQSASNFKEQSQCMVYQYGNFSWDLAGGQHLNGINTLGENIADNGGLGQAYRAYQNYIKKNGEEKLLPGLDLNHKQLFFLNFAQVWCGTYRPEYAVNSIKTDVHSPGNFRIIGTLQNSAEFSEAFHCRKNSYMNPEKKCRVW

| Compound | Retention time [1] [min] | t50 [2] [min] | further results |
| --- | --- | --- | --- |
| VIP analog-n-propylamide derivative (HSDAVFTGNYTKLRKQLAAKKYLNKALK[hSer]-{n‑propylamide}) [Production Example 1] | 18.0 | – | – |
| VIP analog-triethylenetetraminemonoamide derivative (HSDAVFTGNYTKLRKQLAAKKYLNKALK[hSer]-{triethylenetetramine monoamide}) [Production Example 7] | 10.9 | 58 | – |
| VIP analog-ethylenediaminemonoamide derivative (HSDAVFTGNYTKLRKQLAAKKYLNKALK[hSer]-{ethylenediamine monoamide}) [Production Example 8] | 12.1 | – | – |
| VIP analog-oleylamide derivative (HSDAVFTGNYTKLRKQLAAKKYLNKALK[hSer]-oleylamide) [Production Example 5] | 48.3 | – | – |
| Reference Production Example: basic VIP analog of SEQ ID NO: 3 disclosed in JP-A-6-220090 / EP-A-0,613,904, starting material of the derivatives (HSDAVFTGNYTKLRKQLAAKKYLNKALK[hSer]; ends and bridges not checked) [reference compound] | 13.8 | 26 | – |
| VIP analog-stearylamide derivative (HSDAVFTGNYTKLRKQLAAKKYLNKALK[hSer]-stearylamide) [Production Example 4] | 46.8 | – | – |
| VIP analog-laurylamide derivative (HSDAVFTGNYTKLRKQLAAKKYLNKALK[hSer]-laurylamide) [Production Example 3] | 40.0 | 61 | – |
| VIP analog-dihexylamide derivative (HSDAVFTGNYTKLRKQLAAKKYLNKALK[hSer]-dihexylamide) [Production Example 6] | 41.4 | – | – |
| CCCCCCNC(=O)[C@H](CCO)NC(=O)[C@H](CCCCN)NC(=O)[C@H](CC(C)C)NC(=O)[C@H](C)NC(=O)[C@H](CCCCN)NC(=O)[C@H](CC(N)=O)NC(=O)[C@H](CC(C)C)NC(=O)[C@H](Cc1ccc(O)cc1)NC(=O)[C@H](CCCCN)NC(=O)[C@H](CCCCN)NC(=O)[C@H](C)NC(=O)[C@H](C)NC(=O)[C@H](CC(C)C)NC(=O)[C@H](CCC(N)=O)NC(=O)[C@H](CCCCN)NC(=O)[C@H](CCCNC(=N)N)NC(=O)[C@H](CC(C)C)NC(=O)[C@H](CCCCN)NC(=O)[C@@H](NC(=O)[C@H](Cc1ccc(O)cc1)NC(=O)[C@H](CC(N)=O)NC(=O)CNC(=O)[C@@H](NC(=O)[C@H](Cc1ccccc1)NC(=O)[C@@H](NC(=O)[C@H](C)NC(=O)[C@H](CC(=O)O)NC(=O)[C@H](CO)NC(=O)[C@@H](N)Cc1c[nH]cn1)C(C)C)[C@@H](C)O)[C@@H](C)O [Production Example 2, VIP analog-n-hexylamide derivative] (HELM PEPTIDE1{H.S.D.A.V.F.T.G.N.Y.T.K.L.R.K.Q.L.A.A.K.K.Y.L.N.K.A.L.K.[O=C([C@H](CCO)N[*:1])[*:2]].[CCCCCCN[*:1]]}$$$$V2.0) | – | – | half-life at 330 μg/ml (in vitro; broncho-alveolar lavage wash): 4.9 h |
| CC[C@H](C)[C@H](NC(=O)[C@H](CO)NC(=O)[C@H](CC(N)=O)NC(=O)[C@H](CC(C)C)NC(=O)[C@H](Cc1ccc(O)cc1)NC(=O)[C@H](CCCCN)NC(=O)[C@H](CCCCN)NC(=O)[C@@H](NC(=O)[C@H](C)NC(=O)[C@H](CCSC)NC(=O)[C@H](CCC(N)=O)NC(=O)[C@H](CCCCN)NC(=O)[C@H](CCCN=C(N)N)NC(=O)[C@H](CC(C)C)NC(=O)[C@H](CCCN=C(N)N)NC(=O)[C@@H](NC(=O)[C@H](Cc1ccc(O)cc1)NC(=O)[C@H](CC(N)=O)NC(=O)[C@H](CC(=O)O)NC(=O)[C@@H](NC(=O)[C@H](Cc1ccccc1)NC(=O)[C@@H](NC(=O)[C@H](C)NC(=O)[C@H](CC(=O)O)NC(=O)[C@H](CO)NC(=O)[C@@H](N)Cc1c[nH]cn1)C(C)C)[C@@H](C)O)[C@@H](C)O)C(C)C)C(=O)N[C@@H](CC(C)C)C(=O)N[C@@H](CC(N)=O)C(N)=O [VIP, vasoactive intestinal polypeptide] | – | – | half-life at 330 μg/ml (in vitro; cerebrospinal or other body fluid): 1.2 h; VIP degraded (enkephalinase): more than 70%; half-life [3]: about 1.5 hours |
